Patent US20090324602A1 (Biogen, published 2009)
Values joined by “and” are separate entries in the source; they are usually repeats but may differ in a detail not shown here. Equal values may be shown once. Read-outs that look alike come from different tables or passages of the source. One block for each binder: values may come before it.

How the values were obtained:
[1] = biological target: T1, human Fn14 M50A, expressed on the cell surface (human, UniProt Q9NP84 28-129); test: FACS direct binding, cells expressing the huFn14 construct, MFI
T1 construct: also called pYL396
Source text: (§1) A panel of huFn14 point mutants was made by substituting Xenopus residues into the human sequence at a number positions by site-directed mutagenesis on the pEAG2121 template (EBV expression vector for huFn14): pYL391 T33Q, pYL392 S40R, pYL393 L65Q, pYL396 M50A, pYL397 R56K, pYL398 R56P (a more drastic substitution than the Xenopus change) and pYL399 H60K.

[2] = biological target: T2, human Fn14 R56K, expressed on the cell surface (human, UniProt Q9NP84 28-129); test: as above
T2 construct: also called pYL397
Source text: as §1

[3] = biological target: T3, mouse Fn14, full-length, expressed on the cell surface (mouse, UniProt Q9CR75 28-129); test: FACS direct binding titration on murine surface Fn14 (target per legend paragraph 91), MFI
T3 construct: also called murine Fn14; mu Fn14
Source text: (§2) Cells were used in FACS at 2 days post-transfection, staining with monoclonal antibodies of interest (with dilution titration) and gating on green EGFP-positive living cells.

[4] = biological target: T4, rat Fn14, full-length, expressed on the cell surface (rat, UniProt Q9CR75 28-129 (mouse entry)); test: direct binding FACS
T4 construct: also called pEAG2275
Source text: as §2, §1

[5] = biological target: T3, mouse Fn14, full-length, expressed on …; test: FACS titration on cells expressing surface Fn14, MFI against ng/ml anti-Fn14 mab
Source text: as §2

[6] = biological target: T5, cynomolgus monkey Fn14, full-length, expressed on the cell surface (cynomolgus monkey, UniProt Q9NP84 28-129 (human entry)); test: FACS direct binding titration on surface Fn14, MFI
T5 construct: also called cyno Fn14; pEAG2120
Source text: as §2

[7] = biological target: T6, human Fn14 S40R, expressed on the cell surface (human, UniProt Q9NP84 28-129); test: FACS direct binding, cells expressing the huFn14 construct, MFI
T6 construct: also called pYL392
Source text: as §1

[8] = biological target: T7, human Fn14 W42A, expressed on the cell surface (human, UniProt Q9NP84 28-129); test: as above
T7 construct: also called huFn14 W42A; pEAG2251
Source text: as §1

[9] = biological target: T8, human Fn14 R56P, expressed on the cell surface (human, UniProt Q9NP84 28-129); test: as above
T8 construct: also called pYL398
Source text: as §1

[10] = biological target: T9, human Fn14 T33Q, expressed on the cell surface (human, UniProt Q9NP84 28-129); test: as above
T9 construct: also called pYL391
Source text: as §1

[11] = biological target: T10, human Fn14 H60K, expressed on the cell surface (human, UniProt Q9NP84 28-129); test: as above
T10 construct: also called pYL399
Source text: as §1

[12] = biological target: T1, human Fn14 M50A, expressed on the cell …; test: as above; remark: listed apart in the source
Source text: as §1

[13] = biological target: T11, human Fn14 L65Q, expressed on the cell surface (human, UniProt Q9NP84 28-129); test: as above
T11 construct: also called pYL393
Source text: as §1

[14] = biological target: T12, huFn14-huFc fusion protein (human, UniProt Q9NP84 28-80); test: competition ELISA on coated huFn14-huFc against a constant amount of biotinylated murine P4A8, OD450; value is C (midpoint) of the printed 4-P fit, x in ng/ml
T12 construct: also called hFn14-hFc; bivalent Fn14-Fc; not shown: human Fc

[15] = biological target: T13, human Fn14, full-length, expressed on the cell surface (human, UniProt Q9NP84 28-129); test: FACS dilution titration on 293E cells transiently overexpressing human Fn14; value is C (midpoint) of the printed 4-P fit y=(A-D)/(1+(x/C)^B)+D, x in ug/ml
T13 construct: Also used for Fn14 on tumour cell lines (WiDr, A375) and in tissue sections; also called huFn14; hu Fn14

[16] = biological target: T14, soluble monomeric human Fn14 protein (ectodomain with myc and His tags) (human); test: SPR (Biacore), antibody amine-coupled on CM5, soluble monomeric human Fn14 0.3-30 nM as analyte, KD = kd/ka
T14 construct: also called soluble Fn14 protein; soluble human Fn14
Procedure: (§3) Briefly, proteins were diluted to 30 μg/ml in 10 mM acetate, pH 5.0 and 10 μl was injected over chip surfaces that had been activated with a 10 μl injection of 1:1 N-hydroxsuccinimide (NHS): 1-Ethyl-3(3-dimethylaminopropyl)-carbodiimide hydrochloride (EDC). In addition one flow cell in each experiment was left underivitized as a background control. Excess free amine groups were then capped with a 50 μl injection of 1 M Ethanolamine. Typical immobilization levels were ˜1200 RU.
(§4) Concentration series ranging from 0.3 to 30 nM, of human Fn14 were prepared in Biacore buffer #1 (10 mM HEPES pH 7.0+150 mM NaCl+3.4 mM EDTA+0.005% P-20 detergent+0.05% BSA). The amino acid sequence of the soluble Fn14 protein used in these experiments was [sequence] [sequence]. Samples were run over antibody and control surfaces in non-sequential order at a flow rate of 50 μl/min for 5 minutes followed by 15 minutes dissociation in Biacore buffer #1. After each cycle the chip was regenerated with 15 mM NaOH.
(§5) Raw data were normalized by setting the preinjection response to zero on the Y-axis and the injection start to zero on the X-axis for each concentration series. Data were further normalized by subtracting the response on the underivitized surface from the response on the active surfaces and then subtracting the buffer only response on the active surface from the binding data on the same surface (so-called ‘double referencing’ of the data). The global association and dissociation rate constants were then determined for each concentration series by fitting the data using a Marquardt-Levenberg algorithm for 1:1 binding within the Biaevaluation software. The affinity constant was calculated from the ratio of the rate constants (KD=kd/kₐ).

[17] = biological target: T4, rat Fn14, full-length, expressed on the …; test: FACS direct binding titration on surface rat Fn14; value is C (midpoint) of the printed 4-P fit y=(A-D)/(1+(x/C)^B)+D, x in ng/ml
Source text: as §2

mouse Fn14-mouse Fc = biological target: T15, mouse Fn14-mouse Fc (mouse, UniProt Q9CR75 28-80); test: direct binding ELISA, mouse Fn14-mouse Fc coated at 2 µg/ml, HRP-goat anti-human IgG
T15 construct: not shown: mouse Fc

[18] = biological target: T13, human Fn14, full-length, expressed on …; test: FACS direct binding titration on surface human Fn14; value is C (midpoint) of the printed 4-P fit y=(A-D)/(1+(x/C)^B)+D, x in ng/ml
Source text: as §2

[19] = biological target: T14, soluble monomeric human Fn14 protein …; test: SPR (Biacore), antibody amine-coupled on CM5, soluble monomeric human Fn14 0.3-30 nM as analyte, 1:1 fit
Procedure: as §3, §4, §5

[20] = biological target: T13, human Fn14, full-length, expressed on …; test: FACS on WiDr cells

- EC50 [3]: 0.00201 µg/mL
- binding result [4]: binds
- EC50 [6]: 0.00119 µg/mL
- binding result [7]: binds
- binding result [8]: binds
- binding result [9]: binds
- binding result [10]: binds
- binding result [11]: binds
- binding result [12]: binds
- binding result [13]: binds
B4: monoclonal antibody 1.P3G5.1E4 (P3G5), murine (antibody, V domains shown)
VH: QVQLQQSGPEVVRPGVSVKISCKGSGYTFTDYGIHWVKQSHAKSLEWIGVISTYNGYTNYNQKFKGKATMTVDKSSSTAYMELARLTSEDSAIYYCARAYYGNLYYAMDYWGQGTSVTVSS
VL: DIVLTQSPASLAVSLGQRATISCRANKSVSTSSYSYMHWYQQKPGQPPKLLIKYASNLESGVPARFSGSGSGTDFILNIHPVEEEDAATYYCQHSRELPFTFGSGTKLEIK
notes: Mouse hybridoma mAb (ATCC PTA-9949)

- IC50 [14]: 0.0357 µg/mL
- EC50 [15]: 0.175 µg/mL
B6: humanized P4A8 (H2/L3) huIgG1, kappa (antibody, V domains shown)
VH: QVQLVQSGAEVKKPGASVKVSCKGSGYTFTDYGMHWVRQAPGQGLEWIGVISTYNGYTNYNQKFKGRATMTVDKSTSTAYMELRSLRSDDTAVYYCARAYYGNLYYAMDYWGQGTLVTVSS
VL: DIVLTQSPASLAVSLGQRATISCRASKSVSTSSYSYMHWYQQKPGQPPKLLIKYASNLESGVPARFSGSGSGTDFILNIHPMEEDDTATYYCQHSRELPFTFGGGTKLEIKR
notes: One of the 'six versions of huP4A8'; also called version of huP4A8 H2/L3

- IC50 [14]: 0.0275 µg/mL
- EC50 [15]: 0.175 µg/mL
B7: humanized P4A8 (H2/L1) huIgG1, kappa (antibody, V domains shown)
VH: QVQLVQSGAEVKKPGASVKVSCKGSGYTFTDYGMHWVRQAPGQGLEWIGVISTYNGYTNYNQKFKGRATMTVDKSTSTAYMELRSLRSDDTAVYYCARAYYGNLYYAMDYWGQGTLVTVSS
VL: DIVLTQSPASLAVSLGQRATISCRASKSVSTSSYSYMHWYQQKPGQPPKLLIKYASNLESGVPARFSGSGSGTDFSLNIHPMEEDDTAMYFCQHSRELPFTFGGGTKLEIKR
notes: One of the 'six versions of huP4A8'; also called version of huP4A8 H2/L1

- IC50 [14]: 0.0316 µg/mL
- EC50 [15]: 0.172 µg/mL
B9: humanized P4A8 (H1/L3) huIgG1, kappa (antibody, V domains shown)
VH: QVQLVQSGAEVKKPGASVKVSCKGSGYTFTDYGMHWVRQAPGQGLEWMGVISTYNGYTNYNQKFKGRVTMTVDKSTSTAYMELRSLRSDDTAVYYCARAYYGNLYYAMDYWGQGTLVTVSS
VL: DIVLTQSPASLAVSLGQRATISCRASKSVSTSSYSYMHWYQQKPGQPPKLLIKYASNLESGVPARFSGSGSGTDFILNIHPMEEDDTATYYCQHSRELPFTFGGGTKLEIKR
notes: One of the 'six versions of huP4A8'; also called version of huP4A8 H1/L3

- IC50 [14]: 0.0326 µg/mL
- EC50 [15]: 0.179 µg/mL
B10: humanized P4A8 (H2/L2) huIgG1, kappa (antibody, V domains shown)
VH: QVQLVQSGAEVKKPGASVKVSCKGSGYTFTDYGMHWVRQAPGQGLEWIGVISTYNGYTNYNQKFKGRATMTVDKSTSTAYMELRSLRSDDTAVYYCARAYYGNLYYAMDYWGQGTLVTVSS
VL: DIVLTQSPASLAVSLGQRATISCRASKSVSTSSYSYMHWYQQKPGQPPKLLIKYASNLESGVPARFSGSGSGTDFILNIHPMEEDDTAMYFCQHSRELPFTFGGGTKLEIKR
notes: One of the 'six versions of huP4A8'; also called version of huP4A8 H2/L2

- Kd [16]: 3.4 nM and 2.2 nM
- EC50 [17]: 0.0721 µg/mL
- EC50 [18]: 0.0916 µg/mL
- koff [19]: 0.0029 s⁻¹ and 0.0047 s⁻¹
- kon [19]: 2e+06 M⁻¹ s⁻¹ and 2.9e+06 M⁻¹ s⁻¹
B11: humanized P4A8 (H1/L1) aglycosylated S228P/T299A huIgG4, kappa (antibody)
heavy: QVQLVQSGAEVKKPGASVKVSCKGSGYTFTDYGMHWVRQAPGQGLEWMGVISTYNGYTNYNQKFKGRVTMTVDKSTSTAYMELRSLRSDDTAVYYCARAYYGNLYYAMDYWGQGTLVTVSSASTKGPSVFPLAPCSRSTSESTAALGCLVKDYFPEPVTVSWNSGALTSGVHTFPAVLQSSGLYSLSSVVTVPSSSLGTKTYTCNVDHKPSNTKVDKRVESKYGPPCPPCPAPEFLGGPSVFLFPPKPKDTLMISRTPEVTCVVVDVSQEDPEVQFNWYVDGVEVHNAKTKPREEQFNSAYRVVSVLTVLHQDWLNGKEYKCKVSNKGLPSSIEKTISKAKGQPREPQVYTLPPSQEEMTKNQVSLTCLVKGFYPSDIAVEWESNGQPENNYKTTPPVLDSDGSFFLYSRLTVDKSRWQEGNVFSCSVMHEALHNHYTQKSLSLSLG
light: DIVLTQSPASLAVSLGQRATISCRASKSVSTSSYSYMHWYQQKPGQPPKLLIKYASNLESGVPARFSGSGSGTDFSLNIHPMEEDDTAMYFCQHSRELPFTFGGGTKLEIKRTVAAPSVFIFPPSDEQLKSGTASVVCLLNNFYPREAKVQWKVDNALQSGNSQESVTEQDSKDSTYSLSSTLTLSKADYEKHKVYACEVTHQGLSSPVTKSFNRGEC
notes: also called huP4A8-aglyG4P; hP4A8.IgG4Pagly

The remaining lines, values behind:

B1: monoclonal antibody 1.P4A8.3C7 (P4A8), murine (antibody, V domains shown)
VH: QVQLQQSGPEVVRPGVSVKISCKGSGYTFTDYGMHWVKQSHAKSLEWIGVISTYNGYTNYNQKFKGKATMTVDKSSSTAYMELARLTSEDSAIYYCARAYYGNLYYAMDYWGQGTSVTVSS
VL: DIVLTQSPASLAVSLGQRATISCRASKSVSTSSYSYMHWYQQKPGQPPKLLIKYASNLESGVPARFSGSGSGTDFILNIHPVEEEDAATYYCQHSRELPFTFGSGTKLEIK
notes: Mouse hybridoma mAb (ATCC PTA-9947); also called muP4A8; murine P4A8 mAb
- binding result [1]: binds
- binding result [2]: binds

B2: monoclonal antibody P3D8, murine (antibody, V domains shown)
VH: not shown
VL: DIVLTQSPASLAVSLGQRATISCRASKSVSTSSYSYMHWYQQKPGQPPKLLIKYTSNLESGVPARFSGSGSGTDFILNIHPVEEEDAATYYCQHSRELPWTFGGGTKLEIK
- EC50 [3]: 0.00238 µg/mL
- binding result [4]: binds

B3: monoclonal antibody 1.P2D3.3D5 (P2D3), murine (antibody, V domains shown)
VH: not shown
VL: DIVLTQSPASLAVSLGQRATISCRASKSVSTSSYSYMHWYQQKPGQPPKLLIKYTSNLESGVPARFSGSGSGTDFILNIHPVEEEDAATYYCQHSRELPWTFGGGTKLEIK
notes: Mouse hybridoma mAb (ATCC PTA-9948)
- EC50 [3]: 0.00226 µg/mL
- binding result [4]: binds
- EC50 [5]: 0.00478 µg/mL

B5: humanized P4A8 (H1/L2) huIgG1, kappa (antibody, V domains shown)
VH: QVQLVQSGAEVKKPGASVKVSCKGSGYTFTDYGMHWVRQAPGQGLEWMGVISTYNGYTNYNQKFKGRVTMTVDKSTSTAYMELRSLRSDDTAVYYCARAYYGNLYYAMDYWGQGTLVTVSS
VL: DIVLTQSPASLAVSLGQRATISCRASKSVSTSSYSYMHWYQQKPGQPPKLLIKYASNLESGVPARFSGSGSGTDFILNIHPMEEDDTAMYFCQHSRELPFTFGGGTKLEIKR
notes: One of the 'six versions of huP4A8' (two heavy chains by three light chains) expressed transiently in 293E cells; also called version of huP4A8 H1/L2
- IC50 [14]: 0.0408 µg/mL
- EC50 [15]: 0.178 µg/mL

B8: humanized P4A8 (H1/L1) huIgG1, kappa (antibody)
heavy: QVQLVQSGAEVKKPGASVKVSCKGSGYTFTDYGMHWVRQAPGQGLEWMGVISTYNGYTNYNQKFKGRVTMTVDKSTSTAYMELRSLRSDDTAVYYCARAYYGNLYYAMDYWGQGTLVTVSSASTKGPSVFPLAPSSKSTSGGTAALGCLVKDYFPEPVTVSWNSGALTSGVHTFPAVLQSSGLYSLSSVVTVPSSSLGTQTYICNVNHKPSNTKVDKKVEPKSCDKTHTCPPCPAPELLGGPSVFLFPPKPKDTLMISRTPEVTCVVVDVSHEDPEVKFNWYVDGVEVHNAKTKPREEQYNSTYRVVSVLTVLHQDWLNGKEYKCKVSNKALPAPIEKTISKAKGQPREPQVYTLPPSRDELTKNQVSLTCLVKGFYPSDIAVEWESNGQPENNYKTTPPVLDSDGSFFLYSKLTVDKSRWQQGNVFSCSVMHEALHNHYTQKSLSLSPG
light: DIVLTQSPASLAVSLGQRATISCRASKSVSTSSYSYMHWYQQKPGQPPKLLIKYASNLESGVPARFSGSGSGTDFSLNIHPMEEDDTAMYFCQHSRELPFTFGGGTKLEIKRTVAAPSVFIFPPSDEQLKSGTASVVCLLNNFYPREAKVQWKVDNALQSGNSQESVTEQDSKDSTYSLSSTLTLSKADYEKHKVYACEVTHQGLSSPVTKSFNRGEC
notes: H1 heavy chain (pYL310) with L1 kappa light chain (pYL321); also called huP4A8; hP4A8.IgG1
- Kd [16]: 2.6 nM and 1.7 nM
- EC50 [17]: 0.0586 µg/mL
- EC50 (mouse Fn14-mouse Fc): ~0.00679 µg/mL
- EC50 [18]: 0.0766 µg/mL
- koff [19]: 0.0029 s⁻¹ and 0.003 s⁻¹
- kon [19]: 1.7e+06 M⁻¹ s⁻¹ and 1.8e+06 M⁻¹ s⁻¹
- EC50 [20]: 0.12 nM
- IC50 [14]: 0.0352 µg/mL
- EC50 [15]: 0.25 µg/mL
